Earlier results on 1 substance are cited in PMC7212196.

The target of the data set is soluble IL-6 receptor (Homo sapiens) (UniProt P08887).
Chain of UniProt P08887 (P08887 20-355): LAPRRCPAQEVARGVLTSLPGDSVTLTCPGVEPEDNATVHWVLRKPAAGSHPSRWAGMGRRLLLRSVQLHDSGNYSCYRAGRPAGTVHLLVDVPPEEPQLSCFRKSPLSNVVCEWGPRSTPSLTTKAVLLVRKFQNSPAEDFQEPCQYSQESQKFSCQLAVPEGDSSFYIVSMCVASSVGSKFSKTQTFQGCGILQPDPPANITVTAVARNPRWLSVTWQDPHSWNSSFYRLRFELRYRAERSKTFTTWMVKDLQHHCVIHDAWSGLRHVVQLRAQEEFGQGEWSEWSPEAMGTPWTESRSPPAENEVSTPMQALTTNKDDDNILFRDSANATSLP

Chain of IL-6 (P05231 30-212): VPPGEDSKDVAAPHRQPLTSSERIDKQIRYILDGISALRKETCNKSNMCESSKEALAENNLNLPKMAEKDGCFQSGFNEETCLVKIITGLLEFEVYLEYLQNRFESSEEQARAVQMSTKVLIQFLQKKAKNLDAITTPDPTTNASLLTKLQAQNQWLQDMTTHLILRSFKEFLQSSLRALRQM

One may read the Kd as the free concentration of one partner at which half of the binding sites on the other are occupied at equilibrium, for simple one-to-one binding. Take IL-6 (from UniProt P05231): the Kd is 5 nM.
